The results in this text go back to the DeepSol protein solubility set.

The series can be described thus: soluble on expression in E. coli; label from the status in PepcDB or PDB records.
For “MSAEKPEVIITYCIQCQWLLRAAWLAQELLSTFSDDLGKVSLQPGTGGAFRITCDGVQLWERKADGGFPEAKVLKQRLRDQIDPARDLGHNDRQTPSNPQ”, the “soluble on expression in E. coli” value is given as “soluble”.
In the case of “MSLTTLNIGLILPDVLGTYGDDGNALVLRQRARMRGINAEIQRVTLDDAVPSTLDLYCLGGGEDTAQILATEHLTKDGGLQTAAAAGRPIFAVCAGLQVLGDSFRAAGRVIDGLGLIDATTVSLQKRAIGEVETTPTRAGFTAELTERLTGFENHMGATLLGPDAEPLGRVVRGEGNTDVWAASENTDDQRQQFAEGAVQGSIIATYMHGPALARNPQLADLMLAKAMGVALKEGHHHHHH”, the “soluble on expression in E. coli” value was “not soluble”.
In the case of “MSIKPIDFQMMIPKTAEISKIQNDQQQKSVVVNEQQTNITRQKFEENVNTVHARENAEKVRIDSEQKKKKEERGRKKNPNRAKYGTKGEKEPEEQTSVIDIRL”, the “soluble on expression in E. coli” value is “not soluble”.
As to “MSEPSNNSEKVPDEVQEIRDAENTFNSIQRCTTTLKGFQKSYDELKLQRKQSLQTIRQHEADIQQLEQGIRVHTAAFQLLRRLLSEIRRPNQILQEALQARHIEIEAFDDEAERLNVLIVEERRNLVELQAARKIRKSYLIVFQKQIAQLKAENKDEEATPAQEQMTKKSLKRRRDDEDDETGPSARRAPNSVGAF”, the “soluble on expression in E. coli” value is on record as “soluble”.
Next, “MNRIKVAILFGGCSEEHDVSVKSAIEIAANINKEKYEPLYIGITKSGVWKMCEKPCAEWENENCYSAVLSPDKKMHGLLVKKNHEYEINHVDVAFSALHGKSGEDGSIQGLFELSGIPFVGCDIQSSAICMDKSLTYIVAKNAGIATPAFWVINKDDRPVAATFTYPVFVKPARSGSSFGVKKVNSADELDYAIESARQYDSKILIEQAVSGCEVGCAVLGNSAALVVGEVDQIRLQYGIFRIHQEVEPEKGSENAVITVPADLSAEERGRIQETVKKIYKTLGCRGLARVDMFLQDNGRIVLNEVNTLPGFTSYSRYPRMMAAAGISLPELIDRLIVLALKG”: “soluble”.
Next, “MKPSIFRQALCVSAAAVLTTVSHSLTTPTAHAQGGTPGLMEFRWDSDRNYRKLYYFQTSSIENDRSEWYLHLRAKDRKTSIMKLTVTVPDYFDAKLRPERMTLCRTSSGSMTKRTRCLEEVPATIEVNKTQTAIEVYPDTPVPVEGDYSLRIKLFNPQGKRMYQLNALIQAPGDVPMSGYVGSWLIDMD”: “not soluble”.
For “MLAAWLGCVLPAGAGLPVETLRVPPGFRVELLTEAMPSAREMALSPAGILYVGSRTGKVYALPLQVPGATVRVVASGLEQPVGVAWRDGSLYVSAVSRVVRLDRIDSRLDDPPVPVVVSDRFPTETHHGWKFIAFGPDGKLYVPVGAPCNVCHRDEDRYANLMRMNADGSSLEVVARGIRNTVGFDWHPVTHELWFTDNGADMMGDDVPDDELNRITAPGQHFGYPFCHAGDVPDPEFGAGHPCSRYVPPVGKLGAHVAALGMRFYTGSNFPQAYRHNLFIAEHGSWNRSSKVGYRVVRVVLDAAGKVVRQEPFVEGWLRGERAWGRPVDVLVAPDGSLLVSDDYAGAVYRVRYTGKLEHHHHHH”, the “soluble on expression in E. coli” value is listed as “soluble”.
Take “MAHHHHHHMTPTSAITTSAPATATTAEQTPLPPEQTSMFDAPGTPTPAVSAASARATGAQDSSTLMEGAKTETTKQNLAMKGLDRWMKMQLPADWMECIRQNLQLDKHGQPMHAVTEMKDAIPLLITPLTGDVKFFPYFVCSMDVAVRYHYVIQNERDPDTTAVIDDLQRRFGNSGRLLVVRNRYNRGYSGSMNQAFEWALKERTAEEVPWVFACGVDAIFEPGLLAKMIEVVQQNTRGDAAMLAALRAEVELEERLVREGNYSYYERWAPRGRPLKVLRSGYPGVPLNVRTAPLLPDRIRYTVADENRESGIVRPAELRTRFFGNYVATVTPVPDALGTIAVTRLALSAVGYFDENYFPAYMDDIDLRWRHFAYGFGALHGERNGPVTRWHHYNAANLRGSPFVDPDLEKYGTEDNYSRRAFLSYIRRSKGIYDKLKYGPRDMDGVWRQAAQKAEFKYSSFNVSHYPADTWVLDEDARGCMFHHTYNYKTQNWSRPSDCSYNPRTLEESGILGVDQLASYRSMLAEKAFAYQ”: the “soluble on expression in E. coli” value was “not soluble”.
Regarding “MGREMMELNENRALAGGRTGSLRNIKRPLAITEAERQAVRDINLAHLDITSIDFDLFYLRENMELPLDAAAAVAYRLIVGTGLPQKLRCRDDTLLNFILQCRKKYRNVPYHNFYHVVDVCQTIYTFLYKGAVCEKLTELDCFVLLVTALVHDLDHMGLNNSFYLKTDSPLGILSSASGNASVLEVHHCNLAVEILSDPDSDVFEGLDAADRTLAYRSMIDCVLATDMAKHNELLNLFLAAMEKPYQIGDVASRQMMMDVIVKAGDVSNVTKPFDISRLWAMAVTEEFYRQGDMEKEKGVEVLPMFDRSKNTELAKGQIGFIDFVAGPFFKKIVSASLTGMQWTVERVESNRLEWQRTLDVKAAGDGNK”, the “soluble on expression in E. coli” value was “soluble”.
Regarding “MGSDKIHHHHHHMRLVVDGFGKYLGIENGLIVVKEKGKALRKVRPEDLKQVLIIGKAAISSDAIKLLLKNRVDVVFLDFNGEILGRLSHPLIGTAKTRREQYLAYGDKRGVHLAKEFIKAKMANQMAILTNLAKARKDSNPEVAESLLKAKKEIDACLNELDGVEAEMIDKVRERLLGIEGKASKHYWDAISLVIPEEYRFNGRRGIEIGSPRYAKDIVNAMLNYGYSILLAECVKAVELAGLDPYAGFLHVDVSGRSSLAIDLMENFRQQVVDRVVLRLISYRQIKPEDCEKRNMVCQLSDNARRLLLASLLERLDSKTQYRGRNLAYSSIILLHARDVVAFLRGERRYEGFVQKW”, the “soluble on expression in E. coli” value is “not soluble”.
Consider “MRCPFCGAEDTSVVDSRISEEGARIRRRRRCVECEKRFTTYETVELRFPQVIKQDGNRVEFNREKLYTSFARALHKRPVPTGQVDAAIERILQKLLGSGVQEISSRTIGEWVMQELYSLDKVAYIRFASVYRSFEDVGDFQEVIREVQSSPQNGDGPSS”, for which the “soluble on expression in E. coli” value is “not soluble”.
Take “MPEQLNTRVEDCFQLAESFFKRPFKRPVVSLKLRGQKAGVAHLHENLLRFNPQLYRENTEDFLKQTVAHEVAHLIAHQLFGERIQPHGEEWQLIMRGVYELPPNRCHTYDVKRRSVTRYIYRCPCAESDFPFSAQRHKLVAQGRRYLCRRCRQTLVYSGETRVELEHHHHHH”: the “soluble on expression in E. coli” value is recorded as “not soluble”.
For the sequence “MVDQGILRLRQKDASLEFGPPRRRTTVVNWYQERHGTRLTKPEWPLAFVCRNPGTCLQIELVTVMII”, the “soluble on expression in E. coli” value is “not soluble”.
As for “MGSDKIHHHHHHMKVKKWVTQDFPMVEESATVRECLHRMRQYQTNECIVKDREGHFRGVVNKEDLLDLDLDSSVFNKVSLPDFFVHEEDNITHALLLFLEHQEPYLPVVDEEMRLKGAVSLHDFLEALIEALAMDVPGIRFSVLLEDKPGELRKVVDALALSNINILSVITTRSGDGKREVLIKVDAVDEGTLIKLFESLGIKIESIEKEEGF”, the “soluble on expression in E. coli” value is reported as “soluble”.
With “MTLEIRPAVPADAEQILAFIIELADYERARHEVVTDVEGIRRSLFAEGSPTRALMCLSEGRPIGYAVYFYSYSTWLGRNGIYLEDLYVTPEYRGVGAGRRLLRELAREAVANDCGRLEWSVLDWNQPAIDFYRSIGALPQDEWVRYRLDGEALRKMAE”, the “soluble on expression in E. coli” value is “soluble”.
For “MRGSHHHHHHLVPRGSVQVISSYDQFKQVTGGDKVVVIDFWATWCGPCKMIGPVFEKISDTPAGDKVGFYKVDVDEQSQIAQEVGIRAMPTFVFFKNGQKIDTVVGADPSKLQAAITQHSA” the value was “soluble”; for “MGFAPVTPAAVETYDPDVDHDDESNGLDGFRVRSKRSGKFSGGYSDSPREVGDGYGVRSRARSNMKMYGGFKSEFDSDHDSGSGFGLKRKYNGNPKVSADFDADSDDEIVLVPKATRLRTHGKPSSGDFSHGSGGGFPLKSFGDRNFASHGFKPKNFSKPEPNFSQDLDYDDEFDDDRAEREGFNPRIQSSRSSSRVNGYSRKDGSYPRNTGASNGYGSSSRFKHEQMNAAAEVESDPIDEVVSSVKMLTEMFVRVENSKMEMMREMEKSRMEMELKHCQMMLESQQQIIGAFAEALSEKKSTNARRPVS”, “not soluble”.
